Reference: patent US20110251375A1
Like-named read-outs stand apart in the source and are kept apart here.

What was measured:
[1] = target: hen egg lysozyme (hen) (UniProt P00698); assay: ELISA, no periplasmic extract; anti-His4 and anti-mouse HRP on coated HEL (100 µg/ml), 12 parallel readings
[2] = target: hen egg lysozyme (hen) (UniProt P00698); assay: ELISA, no periplasmic extract; anti-His4 and anti-mouse HRP on HEL coated at 100 µg/ml
[3] = target: hen egg lysozyme (hen) (UniProt P00698); assay: ELISA, no periplasmic extract; anti-His4 and anti-mouse HRP on HEL coated at 25 µg/ml
[4] = target: hen egg lysozyme (hen) (UniProt P00698); assay: ELISA, no periplasmic extract; anti-His4 and anti-mouse HRP on HEL coated at 3.125 µg/ml
[5] = target: hen egg lysozyme (hen) (UniProt P00698); assay: ELISA, no periplasmic extract; anti-His4 and anti-mouse HRP on HEL coated at 200 µg/ml
[6] = target: hen egg lysozyme (hen) (UniProt P00698); assay: ELISA, no periplasmic extract; anti-His4 and anti-mouse HRP on HEL coated at 0.39 µg/ml
[7] = target: hen egg lysozyme (hen) (UniProt P00698); assay: ELISA, no periplasmic extract; anti-His4 and anti-mouse HRP on HEL coated at 1.55 µg/ml
[8] = target: hen egg lysozyme (hen) (UniProt P00698); assay: ELISA, no periplasmic extract; anti-His4 and anti-mouse HRP on HEL coated at 50 µg/ml
[9] = target: hen egg lysozyme (hen) (UniProt P00698); assay: ELISA, no periplasmic extract; anti-His4 and anti-mouse HRP on HEL coated at 12.5 µg/ml
[10] = target: recombinant human Erythropoietin (rhEPO) (human) (UniProt P01588); assay: ELISA, no periplasmic extract; anti-His-(4) and goat anti-mouse IgG-AP alone on coated rhEPO; negative control, no-antigen well 0.090
Sequence of UniProt P01588 (P01588 28-192 limits assumed): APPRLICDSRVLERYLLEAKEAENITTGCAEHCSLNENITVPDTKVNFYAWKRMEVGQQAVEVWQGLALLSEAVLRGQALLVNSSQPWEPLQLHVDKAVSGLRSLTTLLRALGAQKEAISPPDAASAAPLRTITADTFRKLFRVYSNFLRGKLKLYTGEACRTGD

[11] = target: hen egg lysozyme (hen) (UniProt P00698); assay: ELISA, no periplasmic extract; anti-His-(4) and goat anti-mouse IgG-HRP alone on coated HEL (20 µg/ml); negative control, no-antigen well 0.018
[12] = target: hen egg lysozyme (hen) (UniProt P00698); assay: ELISA, no periplasmic extract; anti-His4 and anti-mouse HRP on HEL coated at 6.25 µg/ml
[13] = target: hen egg lysozyme (hen) (UniProt P00698); assay: ELISA, no periplasmic extract; anti-His4 and anti-mouse HRP on coated HEL (100 µg/ml), 12 parallel readings; remark: listed apart in the source

Sequence of UniProt P00698 (P00698 19-147 limits assumed): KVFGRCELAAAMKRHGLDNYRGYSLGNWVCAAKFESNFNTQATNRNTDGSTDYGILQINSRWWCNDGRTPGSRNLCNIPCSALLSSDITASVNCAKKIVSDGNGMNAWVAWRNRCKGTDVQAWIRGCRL

A 492/620 background (antigen alone) [1]: 0.176 A 492/620
ELISA absorbance (no periplasmic extract) [2]: 0.36 A 492/620
ELISA absorbance (no periplasmic extract) [3]: 0.072 A 492/620
ELISA absorbance (no periplasmic extract) [4]: 0.017 A 492/620
ELISA absorbance (no periplasmic extract) [5]: 0.449 A 492/620
ELISA absorbance (no periplasmic extract) [6]: 0.007 A 492/620
ELISA absorbance (no periplasmic extract) [7]: 0.013 A 492/620
ELISA absorbance (no periplasmic extract) [8]: 0.165 A 492/620
ELISA absorbance (no periplasmic extract) [9]: 0.038 A 492/620
absorbance, no periplasmic extract (control) [10]: 0.095 A 405/620 nm
absorbance, no periplasmic extract (control) [11]: 0.11 A 492/620 nm
ELISA absorbance (no periplasmic extract) [12]: 0.023 A 492/620
A 492/620 background (antigen alone) [13]: 0.133 A 492/620
Substance: anti-His4 antibody (Qiagen)
